Source: paper PMC11117858, “APPROACH: Sensitive Detection of Exosomal Biomarkers by Aptamer-Mediated Proximity Ligation Assay and Time-Resolved Förster Resonance Energy Transfer”

Biological target: CD63 on SH-SY5Y exosomes (UniProt P08962 2-238)
Test: flow cytometry on exosome-coated microspheres; 200 nM probe; 5 mM Mg2+; about 10^3-fold (printed 103-fold) fluorescence over control and MU-Cy5; 1x PBS, 5 mM MgCl2, 0.2% BSA (w/v), 37 C, 1 h; exosome-coated microspheres blocked with glycine/BSA; pH not stated
Details: protein: native; label: 3' Cy5

Sequence of CD63 on SH-SY5Y exosomes (P08962 2-238): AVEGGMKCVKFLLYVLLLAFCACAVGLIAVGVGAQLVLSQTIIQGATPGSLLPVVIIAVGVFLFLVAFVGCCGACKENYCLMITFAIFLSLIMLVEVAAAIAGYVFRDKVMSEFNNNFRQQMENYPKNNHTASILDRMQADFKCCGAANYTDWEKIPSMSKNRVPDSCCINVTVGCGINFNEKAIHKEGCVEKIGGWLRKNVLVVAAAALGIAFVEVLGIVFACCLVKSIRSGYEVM

B1: Apt-CD63-Cy5 (ssDNA)
DNA: ATATACACCCCACCTCGCTCCCGTGACACTAATGCTATTTTTTTTTTTTTTTGACGCTAATAGTTAAGACGCT
B1: binds.
